Test results: the supplement of paper PMC11908140

B1: library; numbered along this chain (parent)
chain: MRKPRAAVGSGHRKQAASQEGRQKHAKNNSQAKPSACDGLARQPEEVVLQASVSSYHLFRDVAEVTAFRGSLLSWYDQEKRDLPWRRRAEDEMDLDRRAYAVWVSEVMLQQTQVATVINYYTGWMQKWPTLQDLASASLEEVNQLWAGLGYYSRGRRLQEGARKVVEELGGHMPRTAETLQQLLPGVGRYTAGAIASIAFGQATGVVDGNVARVLCRVRAIGADPSSTLVSQQLWGLAQQLVDPARPGDFNQAAMELGATVCTPQRPLCSQCPVESLCRARQRVEQEQLLASGSLSGSPDVEECAPNTGQCHLCLPPSEPWDQTLGVVNFPRKASRKPPREESSATCVLEQPGALGAQILLVQRPNSGLLAGLWEFPSVTWEPSEQLQRKALLQELQRWAGPLPATHLRHLGEVVHTFSHIKLTYQVYGLALEGQTPVTTVPPGARWLTQEEFHTAAVSTAMKKVFRVYQGQQPGTCMGSKRSQVSSPCSRKKPRMGQQVLDNFFRSHISTDAHSLNSAAQ

Variants of: B1
Test: 8OG:A repair function score (normalized; synonymous = 0, nonsense = -1) (normalized log-likelihood score); higher = more repair activity (WT-like)
Settings: with 8OG:A DNA repair reporter (GFP) in HEK-293 MUTYH KO cells
Experimental: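 Saturation mutagenesis (NNN codon scan) of the MUTYH cDNA (521-aa nuclear isoform NM_001048174.1 / NP_001041639), stably expressed under doxycycline induction in HEK-293 MUTYH knockout cells. Cells were co-transfected with an 8OG:A-bearing GFP repair reporter plus mCherry and sorted 72 h later into GFP+ and GFP− bins, three replicates per tile. The Rosace log2 enrichment (GFP+ vs GFP−) was converted per tile to a normalized function score with synonymous variants centered at 0 and nonsense variants (codons 1-471) at -1; low-abundance variants were removed.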

First: MRKPRAAVGSGHRKQAASQEGRQKHAKNNSQAKPSACDGLARQPEEVVLQASVSSYHLFRDVAEVTAFRGSLLSWYDQEKRDLPWRRRAEDEMDLDRRAYAVWVSEVMLQQTQVATVINYYTGWMQKWPTLQDLASESLEEVNQLWAGLGYYSRGRRLQEGARKVVEELGGHMPRTAETLQQLLPGVGRYTAGAIASIAFGQATGVVDGNVARVLCRVRAIGADPSSTLVSQQLWGLAQQLVDPARPGDFNQAAMELGATVCTPQRPLCSQCPVESLCRARQRVEQEQLLASGSLSGSPDVEECAPNTGQCHLCLPPSEPWDQTLGVVNFPRKASRKPPREESSATCVLEQPGALGAQILLVQRPNSGLLAGLWEFPSVTWEPSEQLQRKALLQELQRWAGPLPATHLRHLGEVVHTFSHIKLTYQVYGLALEGQTPVTTVPPGARWLTQEEFHTAAVSTAMKKVFRVYQGQQPGTCMGSKRSQVSSPCSRKKPRMGQQVLDNFFRSHISTDAHSLNSAAQ [A137E]
Second: MRKPRAAVGSGHRKQAASQEGRQKHAKNNSQAKPSACDGLARQPEEVVLQASVSSYHLFRDVAEVTAFRGSLLSWYDQEKRDLPWRRRAEDEMDLDRRAYAVWVSEVMLQQTQVATVINYYTGWMQKWPTLQDLASCSLEEVNQLWAGLGYYSRGRRLQEGARKVVEELGGHMPRTAETLQQLLPGVGRYTAGAIASIAFGQATGVVDGNVARVLCRVRAIGADPSSTLVSQQLWGLAQQLVDPARPGDFNQAAMELGATVCTPQRPLCSQCPVESLCRARQRVEQEQLLASGSLSGSPDVEECAPNTGQCHLCLPPSEPWDQTLGVVNFPRKASRKPPREESSATCVLEQPGALGAQILLVQRPNSGLLAGLWEFPSVTWEPSEQLQRKALLQELQRWAGPLPATHLRHLGEVVHTFSHIKLTYQVYGLALEGQTPVTTVPPGARWLTQEEFHTAAVSTAMKKVFRVYQGQQPGTCMGSKRSQVSSPCSRKKPRMGQQVLDNFFRSHISTDAHSLNSAAQ [A137C]
The “8OG:A repair function score” value of the first is higher: -0.16 for the first, -0.261 for the second.

First: MRKPRAAVGSGHRKQAASQEGRQKHAKNNSQAKPSACDGLARQPEEVVLQASVSSYHLFRDVAEVTAFRGSLLSWYDQEKRDLPWRRRAEDEMDLDRRAYAVWVSEVMLQQTQVATVINYYTGWMQKWPTLQDLASHSLEEVNQLWAGLGYYSRGRRLQEGARKVVEELGGHMPRTAETLQQLLPGVGRYTAGAIASIAFGQATGVVDGNVARVLCRVRAIGADPSSTLVSQQLWGLAQQLVDPARPGDFNQAAMELGATVCTPQRPLCSQCPVESLCRARQRVEQEQLLASGSLSGSPDVEECAPNTGQCHLCLPPSEPWDQTLGVVNFPRKASRKPPREESSATCVLEQPGALGAQILLVQRPNSGLLAGLWEFPSVTWEPSEQLQRKALLQELQRWAGPLPATHLRHLGEVVHTFSHIKLTYQVYGLALEGQTPVTTVPPGARWLTQEEFHTAAVSTAMKKVFRVYQGQQPGTCMGSKRSQVSSPCSRKKPRMGQQVLDNFFRSHISTDAHSLNSAAQ [A137H]
Second: MRKPRAAVGSGHRKQAASQEGRQKHAKNNSQAKPSACDGLARQPEEVVLQASVSSYHLFRDVAEVTAFRGSLLSWYDQEKRDLPWRRRAEDEMDLDRRAYAVWVSEVMLQQTQVATVINYYTGWMQKWPTLQDLASLSLEEVNQLWAGLGYYSRGRRLQEGARKVVEELGGHMPRTAETLQQLLPGVGRYTAGAIASIAFGQATGVVDGNVARVLCRVRAIGADPSSTLVSQQLWGLAQQLVDPARPGDFNQAAMELGATVCTPQRPLCSQCPVESLCRARQRVEQEQLLASGSLSGSPDVEECAPNTGQCHLCLPPSEPWDQTLGVVNFPRKASRKPPREESSATCVLEQPGALGAQILLVQRPNSGLLAGLWEFPSVTWEPSEQLQRKALLQELQRWAGPLPATHLRHLGEVVHTFSHIKLTYQVYGLALEGQTPVTTVPPGARWLTQEEFHTAAVSTAMKKVFRVYQGQQPGTCMGSKRSQVSSPCSRKKPRMGQQVLDNFFRSHISTDAHSLNSAAQ [A137L]
The “8OG:A repair function score” value of the first is higher: -0.568 for the first, -1.02 for the second.

First: MRKPRAAVGSGHRKQAASQEGRQKHAKNNSQAKPSACDGLARQPEEVVLQASVSSYHLFRDVAEVTAFRGSLLSWYDQEKRDLPWRRRAEDEMDLDRRAYAVWVSEVMLQQTQVATVINYYTGWMQKWPTLQDLASGSLEEVNQLWAGLGYYSRGRRLQEGARKVVEELGGHMPRTAETLQQLLPGVGRYTAGAIASIAFGQATGVVDGNVARVLCRVRAIGADPSSTLVSQQLWGLAQQLVDPARPGDFNQAAMELGATVCTPQRPLCSQCPVESLCRARQRVEQEQLLASGSLSGSPDVEECAPNTGQCHLCLPPSEPWDQTLGVVNFPRKASRKPPREESSATCVLEQPGALGAQILLVQRPNSGLLAGLWEFPSVTWEPSEQLQRKALLQELQRWAGPLPATHLRHLGEVVHTFSHIKLTYQVYGLALEGQTPVTTVPPGARWLTQEEFHTAAVSTAMKKVFRVYQGQQPGTCMGSKRSQVSSPCSRKKPRMGQQVLDNFFRSHISTDAHSLNSAAQ [A137G]
Second: MRKPRAAVGSGHRKQAASQEGRQKHAKNNSQAKPSACDGLARQPEEVVLQASVSSYHLFRDVAEVTAFRGSLLSWYDQEKRDLPWRRRAEDEMDLDRRAYAVWVSEVMLQQTQVATVINYYTGWMQKWPTLQDLASDSLEEVNQLWAGLGYYSRGRRLQEGARKVVEELGGHMPRTAETLQQLLPGVGRYTAGAIASIAFGQATGVVDGNVARVLCRVRAIGADPSSTLVSQQLWGLAQQLVDPARPGDFNQAAMELGATVCTPQRPLCSQCPVESLCRARQRVEQEQLLASGSLSGSPDVEECAPNTGQCHLCLPPSEPWDQTLGVVNFPRKASRKPPREESSATCVLEQPGALGAQILLVQRPNSGLLAGLWEFPSVTWEPSEQLQRKALLQELQRWAGPLPATHLRHLGEVVHTFSHIKLTYQVYGLALEGQTPVTTVPPGARWLTQEEFHTAAVSTAMKKVFRVYQGQQPGTCMGSKRSQVSSPCSRKKPRMGQQVLDNFFRSHISTDAHSLNSAAQ [A137D]
The “8OG:A repair function score” value of the first is higher: -0.176 for the first, -0.219 for the second.
